In the supplement of paper PMC10899765:

Legend:
Conditions in all cases: 20 nM; 72 h
[1] = test system: MCF10A; test: 5+ nucleoli phenotype percent effect (relative to siNT 0% and siKIF11 100%); higher = more cells with five or more nucleoli
Protocol: (§1)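 After 72 h, cells were fixed and stained with Hoechst and anti-fibrillarin, and nucleoli per nucleus were counted with CellProfiler. Values are plate-adjusted percent effect for the one-nucleolus and 5+ nucleoli phenotypes, normalised to siNT (0%) and to the positive controls siNOL11 or siKIF11 (100%), as the mean of biological triplicates. Percent viability is the nuclei count relative to siNT.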

[2] = test system: MCF10A; test: percent viability (nuclei count relative to siNT); higher = more viable cells
Protocol: as §1

[3] = test system: MCF10A; test: one-nucleolus phenotype percent effect (relative to siNT 0% and siNOL11 100%); higher = more cells with one nucleolus (ribosome biogenesis inhibition)
Protocol: as §1

Sequence | 5+ nucleoli phenotype percent effect [1] [%] | percent viability [2] [%] | one-nucleolus phenotype percent effect [3] [%]
CCUGUGGGCCACCUAGUCACCAA [hsa-miR-134-3p] | -15.2 | 44.8 | 8.84
UAGUACCAGUACCUUGUGUUCA [hsa-miR-624-5p] | -9.19 | 26.3 | -2.83
UUAAUAUCGGACAACCAUUGU [hsa-miR-889] | 0.0778 | 108 | -0.642
CCUGACACCCCAUCUGCCCUCA [hsa-miR-6730-3p] | -26.1 | 61.8 | 26.8
CGGGAGCUGGGGUCUGCAGGU [hsa-miR-6726-5p] | 58.1 | 73 | -17.2
UAACACUGUCUGGUAAAGAUGG [hsa-miR-141-3p] | 44.6 | 83 | -19.9
UUGGACGGUAAGGUUAAGCAA [hsa-miR-4804-5p] | -12.4 | 35.3 | 9.42
CCCUGGGGUUCUGAGGACAUG [hsa-miR-6852-5p] | 29 | 32.3 | 8.28
CCUGACCCACCCCCUCCCGCAG [hsa-miR-4750-3p] | 40.4 | 95.7 | -19.1
GAAAAUGAUGAGUAGUGACUGAUG [hsa-miR-3662] | 57.8 | 88.3 | -17.5
UGCUGGGGGCCACAUGAGUGUG [hsa-miR-4731-5p] | -2.14 | 20.7 | 40.3
CCCCAGGGCGACGCGGCGGG [hsa-miR-1915-3p] | 42.5 | 87.8 | -13.1
CAUGGGAGUUCGGGGUGGUUGC [hsa-miR-6871-5p] | 5.7 | 25.6 | 14.1
GAAAGAGAGCUGAGUGUG [hsa-miR-4311] | -27.3 | 26.3 | 31.2
CUUAGAUUAGAGGAUAUUGUU [hsa-miR-8061] | 58.8 | 73.7 | -12.7
CAGUGCAAGUGUAGAUGCCGA [hsa-miR-3666] | 66.7 | 150 | -18.2
CAGGGAGGUGAAUGUGAU [hsa-miR-1321] | 6.81 | 20.2 | 19.8
UAAAGAACUCUUAAAACCCAAU [hsa-miR-3133] | 48.7 | 51.5 | -22.2
UGUCUUGCAGGCCGUCAUGCA [hsa-miR-431-5p] | -40.8 | 28.5 | 53.9
AAAAGUAACUGCGGUUUUUGCCU [hsa-miR-548w] | 56.1 | 77.2 | -28.5
UGGGAGGGCGUGGAUGAUGGUG [hsa-miR-6785-5p] | 15 | 51.8 | -4.23
UGGGGCUAGUGAUGCAGGACG [hsa-miR-4489] | -9.01 | 18.6 | 25.8
ACAGAGGACAGUGGAGUGUGAGC [hsa-miR-6847-5p] | -1.34 | 51.1 | -1.08
AAUAAUAUCACAGUAGGUGU [hsa-miR-5692b] | 46.7 | 155 | -19.9
CUCCUAUAUGAUGCCUUUCUUC [hsa-miR-337-3p] | 2.51 | 52 | -11
AGAAUUGCGUUUGGACAAUCAGU [hsa-miR-2964a-3p] | -29.2 | 28.5 | 34.8
UAGUACUGUGCAUAUCAUCUAU [hsa-miR-1278] | -12.8 | 73.4 | -1.62
AGGACCUGCGGGACAAGAUUCUU [hsa-miR-492] | -18.8 | 49 | 9.32
CUCGCCCUGUCUCCCGCUAG [hsa-miR-6726-3p] | 66.4 | 126 | -28.4
UUGCUCCUGACUCUGUGCCCACA [hsa-miR-6772-3p] | -4.99 | 32.5 | 1.77
